According to patent US20110294738A1, “PTHR1 RECEPTOR COMPOUNDS” (priority 2008, published 2011):
* marks the point of attachment. Palmitoyl = CCCCCCCCCCCCCCCC(=O)*

Target: PTHR1 receptor
Sequence (P25961 whole entry): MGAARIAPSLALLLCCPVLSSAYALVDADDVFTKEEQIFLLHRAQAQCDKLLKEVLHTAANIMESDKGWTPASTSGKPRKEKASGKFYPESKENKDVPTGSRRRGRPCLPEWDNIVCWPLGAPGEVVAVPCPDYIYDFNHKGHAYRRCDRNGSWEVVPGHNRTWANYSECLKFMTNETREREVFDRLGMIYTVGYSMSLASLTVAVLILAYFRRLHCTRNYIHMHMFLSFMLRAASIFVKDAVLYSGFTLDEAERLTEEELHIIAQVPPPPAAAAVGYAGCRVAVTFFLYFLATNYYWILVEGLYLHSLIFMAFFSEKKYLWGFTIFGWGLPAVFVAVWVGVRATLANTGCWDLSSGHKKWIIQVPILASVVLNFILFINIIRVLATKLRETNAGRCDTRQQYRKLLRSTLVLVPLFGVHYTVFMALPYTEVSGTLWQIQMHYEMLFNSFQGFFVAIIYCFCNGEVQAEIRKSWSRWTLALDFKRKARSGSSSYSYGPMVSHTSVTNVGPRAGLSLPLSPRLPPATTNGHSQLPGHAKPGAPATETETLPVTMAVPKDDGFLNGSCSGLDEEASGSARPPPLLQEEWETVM

Binder | Fold Shift of EC50 [fold] | Inhibition of Maximal Response [%]
Palmitoyl-YFRRLHSTRNYIH-NH2 (SMILES CCCCCCCCCCCCCCCC(=O)N[C@@H](Cc1ccc(O)cc1)C(=O)N[C@@H](Cc1ccccc1)C(=O)N[C@@H](CCCNC(=N)N)C(=O)N[C@@H](CCCNC(=N)N)C(=O)N[C@@H](CC(C)C)C(=O)N[C@@H](Cc1c[nH]cn1)C(=O)N[C@@H](CO)C(=O)N[C@H](C(=O)N[C@@H](CCCNC(=N)N)C(=O)N[C@@H](CC(N)=O)C(=O)N[C@@H](Cc1ccc(O)cc1)C(=O)N[C@H](C(=O)N[C@@H](Cc1c[nH]cn1)C(N)=O)[C@@H](C)CC)[C@@H](C)O) [Compound 6] | 1 | 10.8
Palmitoyl-NGEVQAEIKKSW-NH2 (SMILES CCCCCCCCCCCCCCCC(=O)N[C@@H](CC(N)=O)C(=O)NCC(=O)N[C@@H](CCC(=O)O)C(=O)N[C@H](C(=O)N[C@@H](CCC(N)=O)C(=O)N[C@@H](C)C(=O)N[C@@H](CCC(=O)O)C(=O)N[C@H](C(=O)N[C@@H](CCCCN)C(=O)N[C@@H](CCCCN)C(=O)N[C@@H](CO)C(=O)N[C@@H](Cc1c[nH]c2ccccc12)C(N)=O)[C@@H](C)CC)C(C)C) [Compound 99] | 1 | 17.5
Palmitoyl-WTLALDFKRKAR-NH2 (SMILES CCCCCCCCCCCCCCCC(=O)N[C@@H](Cc1c[nH]c2ccccc12)C(=O)N[C@H](C(=O)N[C@@H](CC(C)C)C(=O)N[C@@H](C)C(=O)N[C@@H](CC(C)C)C(=O)N[C@@H](CC(=O)O)C(=O)N[C@@H](Cc1ccccc1)C(=O)N[C@@H](CCCCN)C(=O)N[C@@H](CCCNC(=N)N)C(=O)N[C@@H](CCCCN)C(=O)N[C@@H](C)C(=O)N[C@@H](CCCNC(=N)N)C(N)=O)[C@@H](C)O) [Compound 103] | 1.2 | -7.3
Palmitoyl-TNAGRADTRQQYRKLL-NH2 (SMILES CCCCCCCCCCCCCCCC(=O)N[C@H](C(=O)N[C@@H](CC(N)=O)C(=O)N[C@@H](C)C(=O)NCC(=O)N[C@@H](CCCNC(=N)N)C(=O)N[C@@H](C)C(=O)N[C@@H](CC(=O)O)C(=O)N[C@H](C(=O)N[C@@H](CCCNC(=N)N)C(=O)N[C@@H](CCC(N)=O)C(=O)N[C@@H](CCC(N)=O)C(=O)N[C@@H](Cc1ccc(O)cc1)C(=O)N[C@@H](CCCNC(=N)N)C(=O)N[C@@H](CCCCN)C(=O)N[C@@H](CC(C)C)C(=O)N[C@@H](CC(C)C)C(N)=O)[C@@H](C)O)[C@@H](C)O) [Compound 77] | 6.9 | 9.9
Palmitoyl-NGEVQAEIKKSWSR-NH2 (SMILES CCCCCCCCCCCCCCCC(=O)N[C@@H](CC(N)=O)C(=O)NCC(=O)N[C@@H](CCC(=O)O)C(=O)N[C@H](C(=O)N[C@@H](CCC(N)=O)C(=O)N[C@@H](C)C(=O)N[C@@H](CCC(=O)O)C(=O)N[C@H](C(=O)N[C@@H](CCCCN)C(=O)N[C@@H](CCCCN)C(=O)N[C@@H](CO)C(=O)N[C@@H](Cc1c[nH]c2ccccc12)C(=O)N[C@@H](CO)C(=O)N[C@@H](CCCNC(=N)N)C(N)=O)[C@@H](C)CC)C(C)C) [Compound 100] | 1.8 | 26.8
Palmitoyl-TNAARSDTRQQYRKLL-NH2 (SMILES CCCCCCCCCCCCCCCC(=O)N[C@H](C(=O)N[C@@H](CC(N)=O)C(=O)N[C@@H](C)C(=O)N[C@@H](C)C(=O)N[C@@H](CCCNC(=N)N)C(=O)N[C@@H](CO)C(=O)N[C@@H](CC(=O)O)C(=O)N[C@H](C(=O)N[C@@H](CCCNC(=N)N)C(=O)N[C@@H](CCC(N)=O)C(=O)N[C@@H](CCC(N)=O)C(=O)N[C@@H](Cc1ccc(O)cc1)C(=O)N[C@@H](CCCNC(=N)N)C(=O)N[C@@H](CCCCN)C(=O)N[C@@H](CC(C)C)C(=O)N[C@@H](CC(C)C)C(N)=O)[C@@H](C)O)[C@@H](C)O) [Compound 80] | 2.3 | 0.8
Palmitoyl-NGEVQAEIKKSWSRWT-NH2 (SMILES CCCCCCCCCCCCCCCC(=O)N[C@@H](CC(N)=O)C(=O)NCC(=O)N[C@@H](CCC(=O)O)C(=O)N[C@H](C(=O)N[C@@H](CCC(N)=O)C(=O)N[C@@H](C)C(=O)N[C@@H](CCC(=O)O)C(=O)N[C@H](C(=O)N[C@@H](CCCCN)C(=O)N[C@@H](CCCCN)C(=O)N[C@@H](CO)C(=O)N[C@@H](Cc1c[nH]c2ccccc12)C(=O)N[C@@H](CO)C(=O)N[C@@H](CCCNC(=N)N)C(=O)N[C@@H](Cc1c[nH]c2ccccc12)C(=O)N[C@H](C(N)=O)[C@@H](C)O)[C@@H](C)CC)C(C)C) [Compound 101] | 1.2 | 25.3
Palmitoyl-TNAGASDTRQQYRKLL-NH2 (SMILES CCCCCCCCCCCCCCCC(=O)N[C@H](C(=O)N[C@@H](CC(N)=O)C(=O)N[C@@H](C)C(=O)NCC(=O)N[C@@H](C)C(=O)N[C@@H](CO)C(=O)N[C@@H](CC(=O)O)C(=O)N[C@H](C(=O)N[C@@H](CCCNC(=N)N)C(=O)N[C@@H](CCC(N)=O)C(=O)N[C@@H](CCC(N)=O)C(=O)N[C@@H](Cc1ccc(O)cc1)C(=O)N[C@@H](CCCNC(=N)N)C(=O)N[C@@H](CCCCN)C(=O)N[C@@H](CC(C)C)C(=O)N[C@@H](CC(C)C)C(N)=O)[C@@H](C)O)[C@@H](C)O) [Compound 76] | 16.9 | 2.4
Palmitoyl-TNAGRSDTAQQYRKLL-NH2 (SMILES CCCCCCCCCCCCCCCC(=O)N[C@H](C(=O)N[C@@H](CC(N)=O)C(=O)N[C@@H](C)C(=O)NCC(=O)N[C@@H](CCCNC(=N)N)C(=O)N[C@@H](CO)C(=O)N[C@@H](CC(=O)O)C(=O)N[C@H](C(=O)N[C@@H](C)C(=O)N[C@@H](CCC(N)=O)C(=O)N[C@@H](CCC(N)=O)C(=O)N[C@@H](Cc1ccc(O)cc1)C(=O)N[C@@H](CCCNC(=N)N)C(=O)N[C@@H](CCCCN)C(=O)N[C@@H](CC(C)C)C(=O)N[C@@H](CC(C)C)C(N)=O)[C@@H](C)O)[C@@H](C)O) [Compound 78] | 12.7 | -29.2
Palmitoyl-TNAGRSDTRAQYRKLL-NH2 (SMILES CCCCCCCCCCCCCCCC(=O)N[C@H](C(=O)N[C@@H](CC(N)=O)C(=O)N[C@@H](C)C(=O)NCC(=O)N[C@@H](CCCNC(=N)N)C(=O)N[C@@H](CO)C(=O)N[C@@H](CC(=O)O)C(=O)N[C@H](C(=O)N[C@@H](CCCNC(=N)N)C(=O)N[C@@H](C)C(=O)N[C@@H](CCC(N)=O)C(=O)N[C@@H](Cc1ccc(O)cc1)C(=O)N[C@@H](CCCNC(=N)N)C(=O)N[C@@H](CCCCN)C(=O)N[C@@H](CC(C)C)C(=O)N[C@@H](CC(C)C)C(N)=O)[C@@H](C)O)[C@@H](C)O) [Compound 81] | 13.8 | -20.8
Palmitoyl-TNAGRSDARQQYRKLL-NH2 (SMILES CCCCCCCCCCCCCCCC(=O)N[C@H](C(=O)N[C@@H](CC(N)=O)C(=O)N[C@@H](C)C(=O)NCC(=O)N[C@@H](CCCNC(=N)N)C(=O)N[C@@H](CO)C(=O)N[C@@H](CC(=O)O)C(=O)N[C@@H](C)C(=O)N[C@@H](CCCNC(=N)N)C(=O)N[C@@H](CCC(N)=O)C(=O)N[C@@H](CCC(N)=O)C(=O)N[C@@H](Cc1ccc(O)cc1)C(=O)N[C@@H](CCCNC(=N)N)C(=O)N[C@@H](CCCCN)C(=O)N[C@@H](CC(C)C)C(=O)N[C@@H](CC(C)C)C(N)=O)[C@@H](C)O) [Compound 79] | 7.2 | 1.2
Palmitoyl-NGEVQAEIKKSWSRWTLALD-NH2 (SMILES CCCCCCCCCCCCCCCC(=O)N[C@@H](CC(N)=O)C(=O)NCC(=O)N[C@@H](CCC(=O)O)C(=O)N[C@H](C(=O)N[C@@H](CCC(N)=O)C(=O)N[C@@H](C)C(=O)N[C@@H](CCC(=O)O)C(=O)N[C@H](C(=O)N[C@@H](CCCCN)C(=O)N[C@@H](CCCCN)C(=O)N[C@@H](CO)C(=O)N[C@@H](Cc1c[nH]c2ccccc12)C(=O)N[C@@H](CO)C(=O)N[C@@H](CCCNC(=N)N)C(=O)N[C@@H](Cc1c[nH]c2ccccc12)C(=O)N[C@H](C(=O)N[C@@H](CC(C)C)C(=O)N[C@@H](C)C(=O)N[C@@H](CC(C)C)C(=O)N[C@@H](CC(=O)O)C(N)=O)[C@@H](C)O)[C@@H](C)CC)C(C)C) [Compound 105] | 1.1 | 34
Palmitoyl-SRWTLALDFKRKAR-NH2 (SMILES CCCCCCCCCCCCCCCC(=O)N[C@@H](CO)C(=O)N[C@@H](CCCNC(=N)N)C(=O)N[C@@H](Cc1c[nH]c2ccccc12)C(=O)N[C@H](C(=O)N[C@@H](CC(C)C)C(=O)N[C@@H](C)C(=O)N[C@@H](CC(C)C)C(=O)N[C@@H](CC(=O)O)C(=O)N[C@@H](Cc1ccccc1)C(=O)N[C@@H](CCCCN)C(=O)N[C@@H](CCCNC(=N)N)C(=O)N[C@@H](CCCCN)C(=O)N[C@@H](C)C(=O)N[C@@H](CCCNC(=N)N)C(N)=O)[C@@H](C)O) [Compound 104] | 1.2 | 26.8
Palmitoyl-TNAGRSATRQQYRKLL-NH2 (SMILES CCCCCCCCCCCCCCCC(=O)N[C@H](C(=O)N[C@@H](CC(N)=O)C(=O)N[C@@H](C)C(=O)NCC(=O)N[C@@H](CCCNC(=N)N)C(=O)N[C@@H](CO)C(=O)N[C@@H](C)C(=O)N[C@H](C(=O)N[C@@H](CCCNC(=N)N)C(=O)N[C@@H](CCC(N)=O)C(=O)N[C@@H](CCC(N)=O)C(=O)N[C@@H](Cc1ccc(O)cc1)C(=O)N[C@@H](CCCNC(=N)N)C(=O)N[C@@H](CCCCN)C(=O)N[C@@H](CC(C)C)C(=O)N[C@@H](CC(C)C)C(N)=O)[C@@H](C)O)[C@@H](C)O) [Compound 82] | 23.4 | -21.6
